The supplement of paper PMC9112550, “Optimization of the antimicrobial peptide Bac7 by deep mutational scanning” (BMC Biology, 2022)

system: Escherichia coli TOP10; experiment: shrunken log2 fold change of peptide-encoding DNA abundance (4.5 h post-induction vs induction); higher = less antimicrobial activity (less host growth inhibition); details: time post-induction: 4.5 h; library: site-saturation at positions 5, 18, 19, 20
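Also: peptides expressed intracellularly from a pBAD plasmid library in pooled LB shake-flask culture, induced with 0.3% L-arabinose, DNA abundance read by NGS, three biological replicates, DESeq2 with apeglm shrinkage.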

Sequence | shrunken log2 fold change
RRIRWRPPRLPRPRPRPYWSPRP | -0.295
RRIRDRPPRLPRPRPRPLCAPRP | 0.783
RRIRNRPPRLPRPRPRPFQCPRP | -0.0493
RRIRRRPPRLPRPRPRPKPSPRP | 0.294
RRIRPRPPRLPRPRPRPKMYPRP | -0.938
RRIRRRPPRLPRPRPRPSWDPRP | -0.102
RRIRTRPPRLPRPRPRPLCAPRP | 0.0615
RRIRCRPPRLPRPRPRPHLNPRP | -0.627
RRIRFRPPRLPRPRPRPMPLPRP | -0.417
RRIRARPPRLPRPRPRPLWMPRP | 0.264
RRIRLRPPRLPRPRPRPTPAPRP | 0.306
RRIRRRPPRLPRPRPRPISWPRP | -0.166
RRIRVRPPRLPRPRPRPQLTPRP | -0.0141
RRIRGRPPRLPRPRPRPGNSPRP | 0.131
RRIRGRPPRLPRPRPRPHNNPRP | -0.215
RRIRPRPPRLPRPRPRPVMFPRP | 0.885
RRIRDRPPRLPRPRPRPFSMPRP | -0.506
RRIRERPPRLPRPRPRPDRQPRP | -0.0719
RRIRGRPPRLPRPRPRPQFDPRP | 0.61
RRIRRRPPRLPRPRPRPCCYPRP | 0.0352
RRIRRRPPRLPRPRPRPWNDPRP | -0.345
RRIRKRPPRLPRPRPRPSVAPRP | 0.394

Sequence | shrunken log2 fold change
RRIRARPPRLPRPRPRPWARPRP | 0.0181
RRIRPRPPRLPRPRPRPRFPPRP | 0.233
RRIRRRPPRLPRPRPRPEEEPRP | 0.855
RRIRIRPPRLPRPRPRPPQEPRP | -0.0258
RRIRERPPRLPRPRPRPGSYPRP | -0.868
RRIRDRPPRLPRPRPRPLIWPRP | 0.176
RRIRTRPPRLPRPRPRPSGNPRP | -0.168
RRIRIRPPRLPRPRPRPAVLPRP | 0.0102
RRIRQRPPRLPRPRPRPAPRPRP | 0.966
RRIRWRPPRLPRPRPRPGMAPRP | 0.627
RRIRIRPPRLPRPRPRPDDRPRP | 0.0115
RRIRKRPPRLPRPRPRPTAYPRP | 0.185
RRIRMRPPRLPRPRPRPWGQPRP | -0.0394
RRIRMRPPRLPRPRPRPIKVPRP | -0.149
RRIRPRPPRLPRPRPRPELLPRP | 0.14
RRIRKRPPRLPRPRPRPHETPRP | -0.0327
RRIRGRPPRLPRPRPRPATAPRP | 0.979
RRIRERPPRLPRPRPRPARWPRP | 0.592
RRIRQRPPRLPRPRPRPPWEPRP | -0.0075
RRIRARPPRLPRPRPRPFIKPRP | -0.529
RRIRSRPPRLPRPRPRPPMVPRP | 0.131
RRIRRRPPRLPRPRPRPWEDPRP | 0.0594

Sequence | shrunken log2 fold change
RRIRYRPPRLPRPRPRPNQYPRP | -1.18
RRIRWRPPRLPRPRPRPISDPRP | -0.154
RRIRVRPPRLPRPRPRPSHAPRP | -0.24
RRIRIRPPRLPRPRPRPSMPPRP | -0.339
RRIRYRPPRLPRPRPRPNVCPRP | 0.00285
RRIRKRPPRLPRPRPRPDWWPRP | -0.0103
RRIRNRPPRLPRPRPRPVRNPRP | 0.178
RRIRCRPPRLPRPRPRPLQKPRP | -0.0859
RRIRIRPPRLPRPRPRPFKWPRP | -0.128
RRIRIRPPRLPRPRPRPKYVPRP | -0.134
RRIRQRPPRLPRPRPRPHLFPRP | 0.0199
RRIRWRPPRLPRPRPRPRQRPRP | 0.957
RRIRTRPPRLPRPRPRPDIRPRP | 0.0296
RRIRARPPRLPRPRPRPEEQPRP | 1.97
RRIRYRPPRLPRPRPRPMGWPRP | -0.134
RRIRMRPPRLPRPRPRPMVYPRP | 0.0294
RRIRERPPRLPRPRPRPWCYPRP | -0.947
RRIRARPPRLPRPRPRPLMDPRP | 0.634
RRIRHRPPRLPRPRPRPYAHPRP | -0.702
RRIRARPPRLPRPRPRPQNRPRP | 0.495
RRIRYRPPRLPRPRPRPCVWPRP | -0.0563
RRIRVRPPRLPRPRPRPGQHPRP | 0.0795

Sequence | shrunken log2 fold change
RRIRQRPPRLPRPRPRPKWAPRP | -0.0411
RRIRFRPPRLPRPRPRPAASPRP | 0.0986
RRIRMRPPRLPRPRPRPVSQPRP | 0.712
RRIRYRPPRLPRPRPRPTYSPRP | -0.443
RRIRERPPRLPRPRPRPFFSPRP | -0.358
RRIRFRPPRLPRPRPRPQPSPRP | 0.279
RRIRERPPRLPRPRPRPEHHPRP | -0.543
RRIRMRPPRLPRPRPRPGPNPRP | 0.641
RRIRVRPPRLPRPRPRPKAAPRP | 0.1
RRIRWRPPRLPRPRPRPAFRPRP | -0.015
RRIRIRPPRLPRPRPRPHQFPRP | -0.525
RRIRCRPPRLPRPRPRPEQHPRP | 0.0913
RRIRPRPPRLPRPRPRPYKWPRP | -0.296
RRIRFRPPRLPRPRPRPMQFPRP | -0.0783
RRIRTRPPRLPRPRPRPQKWPRP | -0.147
RRIRLRPPRLPRPRPRPANAPRP | 0.0811
RRIRGRPPRLPRPRPRPSVEPRP | 0.651
RRIRYRPPRLPRPRPRPLSGPRP | -0.0308
RRIRWRPPRLPRPRPRPLEVPRP | -0.0802
RRIRGRPPRLPRPRPRPLYMPRP | 0.185
RRIRRRPPRLPRPRPRPYMKPRP | -0.0984
RRIRMRPPRLPRPRPRPAYFPRP | -0.197

Sequence | shrunken log2 fold change
RRIRVRPPRLPRPRPRPSPVPRP | 0.216
RRIRARPPRLPRPRPRPSGQPRP | 0.251
RRIRQRPPRLPRPRPRPCDPPRP | -0.0819
RRIRQRPPRLPRPRPRPYDKPRP | -0.119
RRIRHRPPRLPRPRPRPVLAPRP | 0.126
RRIRWRPPRLPRPRPRPMDNPRP | -0.0894
RRIRKRPPRLPRPRPRPVNGPRP | 0.0996
RRIRERPPRLPRPRPRPTEIPRP | 0.135
RRIRARPPRLPRPRPRPWDEPRP | 0.379
RRIRWRPPRLPRPRPRPYMRPRP | 0.0516
RRIRRRPPRLPRPRPRPGNPPRP | 0.608
RRIRKRPPRLPRPRPRPRRPPRP | 0.544
RRIRSRPPRLPRPRPRPIHAPRP | -0.0213
RRIRLRPPRLPRPRPRPGYWPRP | -0.0133
RRIRERPPRLPRPRPRPTMNPRP | -0.19
RRIRNRPPRLPRPRPRPVKKPRP | -0.0236
RRIRYRPPRLPRPRPRPKYPPRP | -0.0165
RRIRCRPPRLPRPRPRPCHSPRP | -1.91
RRIRLRPPRLPRPRPRPKKWPRP | 0.11
RRIRRRPPRLPRPRPRPIDCPRP | 0.00203
RRIRVRPPRLPRPRPRPIWFPRP | -0.0241
